Assay results taken from patent EP3581587A1 (Shanghai Benemae Pharmaceutical Corporation, dated 2019).

Target: human activated coagulation factor XI (FXIa) (human, UniProt P03951 19-625)
Test: cell-based or functional assay

| apparent Ki, inhibition of FXIa cleavage of chromogenic substrate S-2366 [nM] | Binder |
| --- | --- |
| 2.08 | h-34F8 (antibody, human IgG4, V domains shown) VH: QVQLQESGPGLVKPSETLSLTCTVSGFSLTTYHVHWVRQPPGKGLEWIGIMWRDGDTYYNSSLKSRVTISRDTSKNQVSLKLSSVTAADTAVYFCARGGTLTTPFTYWGQGTLVTVSS VL: DVVLTQTPLSLPVTPGEPASISCRSSQSLESRDGNTYLEWYLQKPGQSPQVLLYGVSNRLSGVPDRFSGSGSGTDFTLKISRVEAEDVGVYYCFQATHGPFTFGQGTKLEIKR |
| 1.43 | h-42A5 (antibody, human IgG4, V domains shown) VH: QVTLKESGPVLVKPTETLTLTCTVSGFSLTSYHLHWIRQPPGKALEWMGLMWRDGDTSYNSRLKSRLTISRDTSKSQVVLTMTNMDPVDTATYYCARGMTLATPFLYWGQGTLVTVSS VL: DVVLTQTPLSLSVTPGQPASISCRSSQSLESSDGNTYLEWYLQKPGQSPQLLIYGVSNRFSGVPDRFSGSGSGTDFTLKISRVEAEDLGVYYCFQATRDPFTFGQGTKLEIKR |
| 0.67 | h-19F6 (antibody, human IgG4, V domains shown) VH: EVQLVESGGGLVQPGRSLRLSCTASGFTFSKYAMSWVRQAPGKGLEWVSAINYDGSTTYYADSVKGRFTLSRDNSKNTLYLQMNSLRAEDTAVYYCARHPFNNFGIWFAYWGQGTLVTVS VL: QFQLTQPSSVSASVGDRVTITCERSSGDIGDSYVSWYQQKPGQPPKNVIYADDQRPSGVPDRFSGSIDGSGNSASLTISSLQAEDAADYFCQSYDSNIDFNPVFGGGTKLEVK |
